Assays:
[1] = molecular target: T1, human ADAM17 on tumour cells (A431, MCF-7, NCI-H1299) (human, UniProt P78536 215-824); test: binding to NCI-H1299 tumour cells, read as MFI against antibody concentration (Log [M])
T1 construct: Endogenous ADAM17 on human tumour cell lines; also called cellular form of ADAM17

[2] = molecular target: T1, human ADAM17 on tumour cells (A431, …); test: cell-based or functional assay
[3] = molecular target: T2, H223-563 (C-D) human ADAM17 human Fc fusion (human, UniProt P78536 223-563); test: SPR Biacore X100, about 700 RU m1022C3 captured, construct at 250 nM for 3 min
T2 construct: Expressed in HEK293 and purified on protein A; not shown: human Fc domain at the C-terminus
Protocol: (§1) The experiment was performed on a Biacore X100 device. The mAb 1022C3 is used as the ligand and the ADAM17 fragments and chimeric constructs are used as the analyte. The experiment is run at 10 μl/min at 25° C. on a rabbit anti-mouse polyclonal antibody (Mouse antibody capture kit, BR-1008-38, GE Healthcare) covalently linked to the matrix of both flowcells of a CM5 sensorchip (BR-1000-12) using the amine coupling kit (BR-1000-50, GE Healthcare), using the HBS-EP+ buffer (BR-1008-26, GE Healthcare) as the running buffer. This buffer is also used for the dilutions of the ligand and the analytes.

[4] = molecular target: T3, H475-602 (D-MPD (Nter)) human ADAM17 human Fc fusion (human, UniProt P78536 475-602); test: as above
T3 construct: Expressed in HEK293 and purified on protein A; not shown: human Fc domain at the C-terminus
Protocol: as §1

[5] = molecular target: T4, H475-563 (D) human ADAM17 human Fc fusion (human, UniProt P78536 475-563); test: as above
T4 construct: Expressed in HEK293 and purified on protein A; not shown: human Fc domain at the C-terminus
Protocol: as §1

[6] = molecular target: T5, H1-474 (P-C) human ADAM17 human Fc fusion (human, UniProt P78536 18-474); test: as above
T5 construct: Expressed in HEK293 and purified on protein A; not shown: human Fc domain at the C-terminus
Protocol: as §1

[7] = molecular target: T6, H223-602 (C-D MPD (Nter)) human ADAM17 human Fc fusion (human, UniProt P78536 223-602); test: as above
T6 construct: Expressed in HEK293 and purified on protein A; not shown: human Fc domain at the C-terminus
Protocol: as §1

[8] = molecular target: T7, H603-671 (MPD (Cter)) human ADAM17 human Fc fusion (human, UniProt P78536 603-671); test: as above
T7 construct: Expressed in HEK293 and purified on protein A; not shown: human Fc domain at the C-terminus
Protocol: as §1

[9] = molecular target: ADAM17 fragments and chimeric constructs giving the positive response (BIAcore); test: as above
[10] = molecular target: M1-671 (p-c-d-mpd) murine ADAM17 human Fc fusion (murine) (UniProt Q9Z0F8); test: as above
[11] = molecular target: M1-602H603-671 (p-c-d-mpd (Nter)-MPD (Cter)) murine/human chimeric ADAM17 human Fc fusion (murine; human) (UniProt Q9Z0F8); test: as above
[12] = molecular target: soluble ADAM17 (extracellular domain of ADAM-17) (human, UniProt P78536 215-671); test: SPR Biacore, antibody captured on rabbit anti-mouse IgG, soluble ADAM17 400 to 12.5 nM, 1:1 Langmuir model
Protocol: The antibody (ligand) was bound to the second flowcell of a Biacore CM5 sensor chip (GE Healthcare) activated on both flowcells with a Rabbit anti-Mouse (RAM) IgG (H+L) covalently linked to the carboxymethyldextran matrix. Soluble ADAM17 (analyte) at concentrations ranging from 400 to 12.5 nM obtained by a two fold dilution scheme (assuming a molecular weight of 52 kDa) was injected onto the surface at a flow rate of 30 μl/min in a 120 s pulse (association) plus an extra 180 s delay for the dissociation phase measurement. The RAM surface was regenerated using NaOH 30 mM, NaCl 150 mM and 10 mM Glycine, HCl pH 1.5 buffer solutions. Curves obtained at each concentration were double referenced by first subtracting the signal from the reference FC1 surface (RAM without any mouse anti-TACE mAb) followed by subtraction of the signal obtained from a running buffer injection (Biacore HBS-EP buffer).
Data were processed using BIAevaluation 3.1 software using the 1:1 Langmuir model. The suitability of the fit was measured by the values of the Refractive Index (RI) which have to tend to zero and the κ² value.

Sequence of soluble ADAM17 (extracellular domain of ADAM-17) (P78536 215-671): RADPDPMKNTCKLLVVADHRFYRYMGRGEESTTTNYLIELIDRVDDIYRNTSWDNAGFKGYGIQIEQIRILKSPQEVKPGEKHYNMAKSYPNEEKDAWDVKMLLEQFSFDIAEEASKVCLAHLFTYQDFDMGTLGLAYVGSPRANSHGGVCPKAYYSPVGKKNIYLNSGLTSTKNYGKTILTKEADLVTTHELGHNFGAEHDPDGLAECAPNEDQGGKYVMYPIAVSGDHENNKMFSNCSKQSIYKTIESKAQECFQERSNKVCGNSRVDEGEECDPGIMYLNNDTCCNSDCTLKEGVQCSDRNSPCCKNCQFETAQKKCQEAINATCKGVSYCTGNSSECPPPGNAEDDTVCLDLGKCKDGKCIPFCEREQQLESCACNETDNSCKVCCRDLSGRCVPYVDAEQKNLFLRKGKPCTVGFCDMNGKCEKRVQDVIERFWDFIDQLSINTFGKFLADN
T1 sequence (P78536 215-824 limits assumed): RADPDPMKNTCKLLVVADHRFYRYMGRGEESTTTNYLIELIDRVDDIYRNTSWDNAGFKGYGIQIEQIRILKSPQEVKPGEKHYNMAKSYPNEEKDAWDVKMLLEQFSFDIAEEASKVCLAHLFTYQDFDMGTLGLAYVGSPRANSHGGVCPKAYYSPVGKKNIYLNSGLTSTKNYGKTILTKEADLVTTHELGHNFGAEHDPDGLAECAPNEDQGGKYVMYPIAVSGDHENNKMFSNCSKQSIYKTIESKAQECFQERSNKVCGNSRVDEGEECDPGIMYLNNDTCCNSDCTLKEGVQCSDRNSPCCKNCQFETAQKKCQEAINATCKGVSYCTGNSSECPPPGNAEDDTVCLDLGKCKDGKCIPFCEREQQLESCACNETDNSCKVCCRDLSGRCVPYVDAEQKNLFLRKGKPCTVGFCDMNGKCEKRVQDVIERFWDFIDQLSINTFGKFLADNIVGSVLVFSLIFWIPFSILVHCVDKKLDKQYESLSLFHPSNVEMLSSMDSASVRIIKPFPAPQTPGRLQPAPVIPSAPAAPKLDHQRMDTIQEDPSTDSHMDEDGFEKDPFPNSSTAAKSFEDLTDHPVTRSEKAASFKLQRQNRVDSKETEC
T7 sequence (P78536 603-671): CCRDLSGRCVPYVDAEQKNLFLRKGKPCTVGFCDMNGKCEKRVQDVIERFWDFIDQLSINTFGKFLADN
Sequence of M1-671 (p-c-d-mpd) murine ADAM17 human Fc fusion (murine) (Q9Z0F8 18-671 limits assumed, form in doubt): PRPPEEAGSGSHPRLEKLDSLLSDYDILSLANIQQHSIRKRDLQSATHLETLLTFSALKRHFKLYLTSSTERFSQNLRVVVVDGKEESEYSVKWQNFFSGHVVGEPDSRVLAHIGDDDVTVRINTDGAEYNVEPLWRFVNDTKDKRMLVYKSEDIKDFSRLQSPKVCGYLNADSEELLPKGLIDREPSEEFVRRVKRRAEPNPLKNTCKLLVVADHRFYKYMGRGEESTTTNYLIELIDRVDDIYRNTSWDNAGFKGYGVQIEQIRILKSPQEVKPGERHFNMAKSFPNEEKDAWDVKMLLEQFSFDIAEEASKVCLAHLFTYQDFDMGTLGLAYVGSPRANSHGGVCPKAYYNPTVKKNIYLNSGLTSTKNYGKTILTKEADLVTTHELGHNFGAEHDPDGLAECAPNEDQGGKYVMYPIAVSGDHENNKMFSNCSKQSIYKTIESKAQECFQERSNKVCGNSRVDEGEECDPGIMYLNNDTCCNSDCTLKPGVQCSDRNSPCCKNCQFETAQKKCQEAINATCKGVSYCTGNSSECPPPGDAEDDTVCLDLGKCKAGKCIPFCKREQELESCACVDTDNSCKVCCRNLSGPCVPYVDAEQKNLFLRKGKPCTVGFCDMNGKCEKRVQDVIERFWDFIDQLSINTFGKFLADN
T3 sequence (P78536 475-602): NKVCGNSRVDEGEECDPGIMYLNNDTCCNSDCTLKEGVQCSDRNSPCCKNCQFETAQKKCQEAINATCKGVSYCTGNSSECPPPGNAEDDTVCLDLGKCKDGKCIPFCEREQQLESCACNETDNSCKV
T2 sequence (P78536 223-563): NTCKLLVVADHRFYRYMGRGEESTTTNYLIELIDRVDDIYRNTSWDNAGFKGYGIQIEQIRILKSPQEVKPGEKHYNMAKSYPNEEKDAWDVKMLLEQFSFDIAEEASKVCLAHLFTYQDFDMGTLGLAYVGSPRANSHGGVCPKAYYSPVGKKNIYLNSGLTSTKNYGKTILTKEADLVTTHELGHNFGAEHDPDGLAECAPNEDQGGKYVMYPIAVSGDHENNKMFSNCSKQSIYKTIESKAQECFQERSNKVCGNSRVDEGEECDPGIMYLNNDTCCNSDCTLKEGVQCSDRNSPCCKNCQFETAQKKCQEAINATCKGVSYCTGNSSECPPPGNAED
T5 sequence (P78536 18-474): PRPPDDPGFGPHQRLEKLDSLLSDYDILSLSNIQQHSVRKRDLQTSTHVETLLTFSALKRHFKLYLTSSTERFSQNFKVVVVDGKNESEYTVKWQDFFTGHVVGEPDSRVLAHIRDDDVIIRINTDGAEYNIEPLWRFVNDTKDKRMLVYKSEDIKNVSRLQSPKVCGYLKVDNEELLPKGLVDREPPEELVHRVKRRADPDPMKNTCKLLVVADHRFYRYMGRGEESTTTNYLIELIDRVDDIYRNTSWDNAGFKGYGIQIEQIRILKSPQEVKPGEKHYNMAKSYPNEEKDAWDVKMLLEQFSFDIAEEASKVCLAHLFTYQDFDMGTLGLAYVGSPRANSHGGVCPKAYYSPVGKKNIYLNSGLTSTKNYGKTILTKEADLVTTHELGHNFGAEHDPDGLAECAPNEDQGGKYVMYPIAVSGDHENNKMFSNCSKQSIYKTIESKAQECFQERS
T4 sequence (P78536 475-563): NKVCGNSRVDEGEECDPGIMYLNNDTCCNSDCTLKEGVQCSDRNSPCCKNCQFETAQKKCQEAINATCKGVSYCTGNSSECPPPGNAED
Sequence of M1-602H603-671 (p-c-d-mpd (Nter)-MPD (Cter)) murine/human chimeric ADAM17 human Fc fusion (murine; human) (Q9Z0F8 other isoform, or with tags, fused parts or gaps mutant limits assumed, form in doubt): as the sequence (Q9Z0F8 18-671 limits assumed, form in doubt) above, with N589D, P593R counted along it
T6 sequence (P78536 223-602): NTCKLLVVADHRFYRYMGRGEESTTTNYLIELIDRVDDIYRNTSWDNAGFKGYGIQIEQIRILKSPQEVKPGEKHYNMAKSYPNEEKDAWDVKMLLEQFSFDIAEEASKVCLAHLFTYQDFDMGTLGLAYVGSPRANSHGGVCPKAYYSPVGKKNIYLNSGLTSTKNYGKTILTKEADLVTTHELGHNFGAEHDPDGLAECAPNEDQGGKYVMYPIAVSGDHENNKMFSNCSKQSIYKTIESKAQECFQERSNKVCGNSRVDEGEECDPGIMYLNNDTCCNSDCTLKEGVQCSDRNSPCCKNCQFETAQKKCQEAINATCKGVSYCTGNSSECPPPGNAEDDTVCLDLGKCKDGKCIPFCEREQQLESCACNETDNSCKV

B1: enzymatically deglycosylated m1022C3 (antibody, V domains shown)
VH: QVTLKESGPGILQPSQTLSLTCSFSGFSLDTSGMGVSWIRQPSGKGLEWLAHIYWDDDKRYNPSLKSRLTISKDTSSNQVFLKITSLDTADTATYYCARRSHFGNYYYAMDYWGQGTSVTVTS
VL: DVQMTQTTSSLSASLGDRVTISCRASQDISSYLNWYQQKPDGTFKLLIFYTSRLQSGVPSKYSGSGSGTDYSLTISNLEQEDIAAYFCQQGKTLPLTFGAGTKLELK
notes: also called enzymatically deglycosylated 1022C3
binding result [1]: binds

B2: m1022C3 (murine anti-ADAM17 monoclonal antibody 1022C3, hybridoma I-4686) (antibody, V domains shown)
VH: QVTLKESGPGILQPSQTLSLTCSFSGFSLNTSGMGVSWIRQPSGKGLEWLAHIYWDDDKRYNPSLKSRLTISKDTSSNQVFLKITSLDTADTATYYCARRSHFGNYYYAMDYWGQGTSVTVTS
VL: DVQMTQTTSSLSASLGDRVTISCRASQDISSYLNWYQQKPDGTFKLLIFYTSRLQSGVPSKYSGSGSGTDYSLTISNLEQEDIAAYFCQQGKTLPLTFGAGTKLELK
modifications: N-glycosylated asparagine in CDR-H1
notes: Murine antibody from a hybridoma; also called mAb 1022C3; mAb m1022C3
IC50 (nM), inhibition of AREG-Nluc shedding from A431 cells [2]: 0.067 nM | IC50 (nM), inhibition of HB-EGF-Nluc shedding from A431 cells [2]: 0.062 nM | IC50 (nM), inhibition of TGFα-Nluc shedding from A431 cells [2]: 0.093 nM | IC50 (nM), inhibition of TNFα-Nluc shedding from A431 cells [2]: 0.054 nM | IC50 (nM), mean over the four substrates shed from A431 cells [2]: 0.069 nM | response (RU) [3]: < 10 RU | response (RU) [4]: < 10 RU | response (RU) [5]: < 10 RU | response (RU) [6]: < 10 RU | response (RU) [7]: < 10 RU | response (RU) [8]: < 10 RU | response (RU) [9]: 90 to 140 RU | response (RU) [10]: < 10 RU | response (RU) [11]: < 10 RU | Kd [12]: 1.27 nM | koff [12]: 0.00036 s⁻¹ | kon [12]: 284000 M⁻¹ s⁻¹

Source: US20160326257A1 (PIERRE FABRE MEDICAMENT, published 2016)
